Experimental data: paper PMC10873366, “DNA binding redistributes activation domain ensemble and accessibility in pioneer factor Sox2” (Nature Communications, 2023)

Biological target: T1, Sox2 C-terminal intrinsically disordered region (C-IDR)
T1 chain: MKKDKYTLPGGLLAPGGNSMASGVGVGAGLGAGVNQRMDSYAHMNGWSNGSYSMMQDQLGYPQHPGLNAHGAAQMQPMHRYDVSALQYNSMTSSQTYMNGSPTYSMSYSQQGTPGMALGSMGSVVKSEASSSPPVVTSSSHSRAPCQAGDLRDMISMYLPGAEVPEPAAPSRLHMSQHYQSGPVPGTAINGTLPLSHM
Assay: NMR titration; 15N-labelled C-IDR titrated with unlabelled N-DBD; 1H15N HSQC chemical shift changes of highly perturbed residues fitted to a 1:1 binding equation; 20 mM NaH2PO4, 50 mM NaCl, 5 mM DTT, pH 5.5, 15 °C
Settings: both partners purified

Kd: 80 ± 4 µM
B1: Sox2 N-terminal domain and DBD (N-DBD) (domain or fragment)
chain: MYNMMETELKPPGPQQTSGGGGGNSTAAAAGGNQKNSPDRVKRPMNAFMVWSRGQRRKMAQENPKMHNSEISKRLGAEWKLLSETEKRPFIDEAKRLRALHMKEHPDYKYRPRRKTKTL
modifications: Limits are not printed. They are inferred from 109 expected HSQC peaks (119 residues minus 9 Pro and the N-terminal Met) and from the C-IDR starting at 120. The NMR sample was 15N(/13C)-labelled or …
